Results taken from publication PMC7873624 (Journal of molecular biology, 2020).

Assays:
[1] = molecular target: recombinant USP7 TRAF domain (residues 62–205) (UniProt Q93009 62-205); assay: ITC
[2] = molecular target: recombinant USP7 UBL1-2 (residues 535–775) (UniProt Q93009 535-775); assay: ITC
Chain of recombinant USP7 UBL1-2 (residues 535–775) (Q93009 535-775): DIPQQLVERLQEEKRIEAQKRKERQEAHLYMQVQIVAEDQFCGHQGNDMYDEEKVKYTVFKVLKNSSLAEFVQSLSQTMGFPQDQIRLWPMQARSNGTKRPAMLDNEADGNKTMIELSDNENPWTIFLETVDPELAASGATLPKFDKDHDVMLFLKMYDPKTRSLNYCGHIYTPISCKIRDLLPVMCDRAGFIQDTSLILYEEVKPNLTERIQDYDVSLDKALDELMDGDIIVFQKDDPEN

Chain of recombinant USP7 TRAF domain (residues 62–205) (Q93009 62-205): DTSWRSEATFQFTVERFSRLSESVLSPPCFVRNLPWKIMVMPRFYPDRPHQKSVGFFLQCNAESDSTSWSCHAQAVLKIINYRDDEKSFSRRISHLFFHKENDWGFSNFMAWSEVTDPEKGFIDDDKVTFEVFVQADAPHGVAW

With SPCEPGTSGFN [Pol ι peptide 573–584] as the binder, how does the Kd [1] read?
Its Kd is 4.8 µM.

How did the Kd [2] turn out when SGKHSFKMKDT [Pol ι peptide 438–448] was run?
The Kd was 169 µM.
